± gives the standard deviation of the averaged measurements.
Columns and labels:
Saccharomyces cerevisiae [1] = experiment: protein stability index of tFT-peptide fusion (C-terminal peptide) (PSI (0-1 scale)); higher = more stable (slower turnover)
Method: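 MPS profiling in S. cerevisiae of the tFT-X12 degron library: putative degron peptides plus stable controls, 12 aa, fused to the C-terminus of a sfGFP-mCherry timer. Cells are FACS-sorted into 8 mCherry/sfGFP bins and deep-sequenced. PSI runs from 0 (unstable) to 1 (stable). Backgrounds are wild type, das1Δ and doa10Δ at 30 °C, and wild type, das1Δ, cdc34-1 and cdc53-1 at 37 °C; 2-3 technical replicates each.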

Saccharomyces cerevisiae [2] = experiment: as above; conditions: genetic background: wild type; temperature: 30 C
[3] = genetic background: cdc34-1, temperature: 37 C
[4] = genetic background: cdc53-1, temperature: 37 C
[5] = genetic background: das1 deletion, temperature: 30 C
[6] = genetic background: das1 deletion, temperature: 37 C
[7] = genetic background: doa10 deletion, temperature: 30 C
[8] = genetic background: wild type, temperature: 30 C
[9] = genetic background: wild type, temperature: 37 C
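Also: PSI is a weighted mean of sequencing reads over stability bins, variants kept only with over 10 reads, mCherry proximal and sfGFP distal, peptide attached via GGGS linker.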

Row | Sequence | protein stability index (Saccharomyces cerevisiae [1]; [3]) | protein stability index (Saccharomyces cerevisiae [1]; [4]) | protein stability index (Saccharomyces cerevisiae [1]; [5]) | protein stability index (Saccharomyces cerevisiae [1]; [6]) | protein stability index (Saccharomyces cerevisiae [1]; [7]) | protein stability index (Saccharomyces cerevisiae [1]; [8]) | protein stability index (Saccharomyces cerevisiae [1]; [9]) | protein stability index (Saccharomyces cerevisiae [2])
1 | MALAVRVVRCGA | 0.406 ± 0.0042 | 0.422 ± 0.018 | 0.302 ± 0.025 | 0.4769 ± 0.0017 | 0.227 ± 0.043 | 0.233 ± 0.038 | 0.379 ± 0.033 | 0.353 ± 0.024
2 | MGVTVRVEGIRA | 0.52 ± 0.036 | 0.517 ± 0.013 | 0.368 ± 0.03 | 0.55332 ± 0.0004 | 0.3374 ± 0.00071 | 0.383 ± 0.013 | 0.537 ± 0.015 | 0.369 ± 0.084
3 | MLIAISASAARF | 0.452 ± 0.037 | 0.5819 ± 0.0017 | 0.417 ± 0.027 | 0.501 ± 0.016 | 0.45 ± 0.02 | 0.44 ± 0.034 | 0.498 ± 0.0095 | 0.4184 ± 0.00049
4 | MLLFVSCCVFLF | 0.134 ± 0.021 | 0.185 ± 0.011 | 0.202 ± 0.038 | 0.292 ± 0.0093 | 0.157 ± 0.0093 | 0.169 ± 0.032 | 0.219 ± 0.019 | 0.206 ± 0.063
5 | MMYTLSMLLRLR | 0.43 ± 0.014 | 0.5 ± 0.0093 | 0.506 ± 0.016 | 0.528 ± 0.015 | 0.64799 ± 0.00045 | 0.52 ± 0.02 | 0.546 ± 0.0085 | 0.513 ± 0.047
6 | MPQSLKKMVFLA | 0.431 ± 0.057 | 0.628 ± 0.022 | 0.61 ± 0.032 | 0.6621 ± 0.005 | 0.0709 ± 0.025 | 0.0847 ± 0.0032 | 0.0875 ± 0.024 | 0.1516 ± 0.0014
7 | MRLQLTFSILLF | 0.353 ± 0.036 | 0.43 ± 0.034 | 0.378 ± 0.021 | 0.393 ± 0.0059 | 0.4027 ± 0.0029 | 0.37 ± 0.021 | 0.3598 ± 0.0024 | 0.389 ± 0.019
8 | MSRALSVLVVVA | 0.176 ± 0.029 | 0.211 ± 0.011 | 0.213 ± 0.036 | 0.323 ± 0.0062 | 0.172 ± 0.0091 | 0.22 ± 0.019 | 0.287 ± 0.029 | 0.312 ± 0.012
9 | MTLYSFSSALLA | 0.413 ± 0.045 | 0.464 ± 0.013 | 0.316 ± 0.014 | 0.461 ± 0.002 | 0.27 ± 0.038 | 0.276 ± 0.016 | 0.423 ± 0.0074 | 0.3535 ± 0.0027
10 | NCVDRFKGQKRM | 0.655 ± 0.055 | 0.723 ± 0.029 | 0.64 ± 0.027 | 0.711 ± 0.0013 | 0.422 ± 0.021 | 0.491 ± 0.023 | 0.6341 ± 0.0052 | 0.505 ± 0.031
11 | NFFIQFHNLLFP | 0.754 ± 0.017 | 0.765 ± 0.037 | 0.664 ± 0.0089 | 0.769 ± 0.022 | 0.653 ± 0.017 | 0.6712 ± 0.0036 | 0.774 ± 0.027 | 0.718 ± 0.0086
12 | NGLVCVFILSWY | 0.202 ± 0.022 | 0.261 ± 0.1 | 0.234 ± 0.038 | 0.437 ± 0.011 | 0.21 ± 0.012 | 0.238 ± 0.033 | 0.375 ± 0.0047 | 0.375 ± 0.031
13 | NLFVFLSYLFNV | 0.603 ± 0.051 | 0.66 ± 0.0075 | 0.563 ± 0.013 | 0.7168 ± 0.0052 | 0.336 ± 0.035 | 0.34 ± 0.014 | 0.484 ± 0.013 | 0.422 ± 0.022
14 | NLVCLDPFLVFV | 0.582 ± 0.027 | 0.612 ± 0.011 | 0.478 ± 0.018 | 0.613 ± 0.0077 | 0.475 ± 0.026 | 0.472 ± 0.025 | 0.5835 ± 0.003 | 0.581 ± 0.22
15 | NMVSMVVVIFGV | 0.248 ± 0.014 | 0.37 ± 0.1 | 0.23 ± 0.039 | 0.437 ± 0.024 | 0.196 ± 0.021 | 0.24 ± 0.02 | 0.386 ± 0.016 | 0.275 ± 0.015
16 | NNQIQKKMYQTN | 0.585 ± 0.022 | 0.778 ± 0.018 | 0.667 ± 0.019 | 0.737 ± 0.012 | 0.179 ± 0.025 | 0.198 ± 0.05 | 0.473 ± 0.051 | 0.35 ± 0.022
17 | NWAIEIRSVKIV | 0.642 ± 0.066 | 0.701 ± 0.022 | 0.619 ± 0.04 | 0.7084 ± 0.007 | 0.148 ± 0.0038 | 0.183 ± 0.021 | 0.303 ± 0.015 | 0.261 ± 0.025
18 | NYCVFLSYLLFC | 0.362 ± 0.044 | 0.424 ± 0.025 | 0.318 ± 0.027 | 0.502 ± 0.0072 | 0.205 ± 0.012 | 0.215 ± 0.033 | 0.3961 ± 0.0034 | 0.301 ± 0.0096
19 | NYFRPWLIFHKC | 0.684 ± 0.021 | 0.749 ± 0.012 | 0.632 ± 0.05 | 0.742 ± 0.014 | 0.2644 ± 0.00051 | 0.309 ± 0.023 | 0.547 ± 0.0037 | 0.38 ± 0.059
20 | PALPQPMNPAPP | 0.656 ± 0.043 | 0.722 ± 0.0094 | 0.657 ± 0.014 | 0.727 ± 0.015 | 0.667 ± 0.022 | 0.66 ± 0.016 | 0.6734 ± 0.0059 | 0.725 ± 0.032

Row | Sequence | protein stability index (Saccharomyces cerevisiae [1]; [3]) | protein stability index (Saccharomyces cerevisiae [1]; [4]) | protein stability index (Saccharomyces cerevisiae [1]; [5]) | protein stability index (Saccharomyces cerevisiae [1]; [6]) | protein stability index (Saccharomyces cerevisiae [1]; [7]) | protein stability index (Saccharomyces cerevisiae [1]; [8]) | protein stability index (Saccharomyces cerevisiae [1]; [9]) | protein stability index (Saccharomyces cerevisiae [2])
21 | PALVVALLASVL | 0.584 ± 0.018 | 0.646 ± 0.039 | 0.505 ± 0.022 | 0.60007 ± 0.00036 | 0.347 ± 0.015 | 0.386 ± 0.029 | 0.504 ± 0.0057 | 0.485 ± 0.011
22 | PCLPLTPMWTLF | 0.713 ± 0.034 | 0.789 ± 0.021 | 0.678 ± 0.0076 | 0.7793 ± 0.0028 | 0.3716 ± 0.0014 | 0.42 ± 0.022 | 0.611 ± 0.018 | 0.493 ± 0.0072
23 | PFFVLFSLAFLF | 0.375 ± 0.018 | 0.439 ± 0.033 | 0.302 ± 0.04 | 0.4886 ± 0.00064 | 0.2698 ± 0.0019 | 0.278 ± 0.017 | 0.422 ± 0.015 | 0.279 ± 0.07
24 | PLATSLIGLFVV | 0.663 ± 0.098 | 0.716 ± 0.013 | 0.522 ± 0.028 | 0.661 ± 0.021 | 0.273 ± 0.018 | 0.298 ± 0.032 | 0.4673 ± 0.0014 | 0.433 ± 0.039
25 | PLLLFFFPRLLF | 0.579 ± 0.046 | 0.62 ± 0.025 | 0.535 ± 0.027 | 0.6481 ± 0.0026 | 0.39 ± 0.0054 | 0.382 ± 0.019 | 0.559 ± 0.025 | 0.475 ± 0.024
26 | PLLPTPLTAPPP | 0.6705 ± 0.0022 | 0.73469 ± 0.00013 | 0.642 ± 0.031 | 0.7031 ± 0.006 | 0.659 ± 0.018 | 0.671 ± 0.023 | 0.6941 ± 0.0038 | 0.385 ± 0.0092
27 | PLLSATLTRRLA | 0.622 ± 0.041 | 0.665 ± 0.0088 | 0.684 ± 0.0075 | 0.692 ± 0.0072 | 0.162 ± 0.015 | 0.19 ± 0.03 | 0.386 ± 0.0044 | 0.475 ± 0.024
28 | PLTSPLLFPVFA | 0.272 ± 0.044 | 0.338 ± 0.029 | 0.269 ± 0.024 | 0.376 ± 0.0081 | 0.219 ± 0.011 | 0.267 ± 0.017 | 0.381 ± 0.033 | 0.376 ± 0.015
29 | PPPLPFPTPPPS | 0.689 ± 0.0093 | 0.764 ± 0.041 | 0.644 ± 0.044 | 0.702 ± 0.0074 | 0.634 ± 0.025 | 0.646 ± 0.032 | 0.6663 ± 0.0036 | 0.433 ± 0.038
30 | PPSLPPLISFSP | 0.7 ± 0.039 | 0.7808 ± 0.0052 | 0.656 ± 0.015 | 0.7661 ± 0.0014 | 0.669 ± 0.011 | 0.6624 ± 0.0039 | 0.7407 ± 0.0059 | 0.729 ± 0.03
31 | PPSRSPLPPLLH | 0.657 ± 0.04 | 0.729 ± 0.024 | 0.687 ± 0.041 | 0.707 ± 0.017 | 0.6917 ± 0.0047 | 0.686 ± 0.027 | 0.694 ± 0.031 | 0.723 ± 0.027
32 | PPTPYPRFIFSF | 0.688 ± 0.048 | 0.7541 ± 0.0012 | 0.647 ± 0.023 | 0.7672 ± 0.0047 | 0.331 ± 0.02 | 0.372 ± 0.028 | 0.601 ± 0.0037 | 0.459 ± 0.027
33 | PPVPRLLPVLAP | 0.525 ± 0.038 | 0.503 ± 0.015 | 0.379 ± 0.025 | 0.546 ± 0.02 | 0.348 ± 0.0045 | 0.385 ± 0.025 | 0.506 ± 0.0077 | 0.474 ± 0.0057
34 | PRIVLFLRLHSN | 0.555 ± 0.082 | 0.651 ± 0.042 | 0.512 ± 0.014 | 0.6891 ± 0.002 | 0.107 ± 0.029 | 0.118 ± 0.02 | 0.2184 ± 0.0019 | 0.21 ± 0.0069
35 | PRPETCHAVAVR | 0.568 ± 0.012 | 0.588 ± 0.037 | 0.377 ± 0.034 | 0.575 ± 0.015 | 0.363 ± 0.0093 | 0.4 ± 0.029 | 0.58 ± 0.011 | 0.4806 ± 0.0021
36 | PRPLLSIYLRHA | 0.597 ± 0.036 | 0.666 ± 0.014 | 0.599 ± 0.023 | 0.69 ± 0.019 | 0.29 ± 0.013 | 0.315 ± 0.017 | 0.553 ± 0.022 | 0.405 ± 0.018
37 | PRQPSKSNASNR | 0.692 ± 0.044 | 0.7277 ± 0.00076 | 0.623 ± 0.023 | 0.722 ± 0.015 | 0.64909 ± 0.00052 | 0.635 ± 0.0095 | 0.701 ± 0.022 | 0.582 ± 0.13
38 | PSIALVRLDVIC | 0.383 ± 0.0059 | 0.471 ± 0.0073 | 0.32 ± 0.038 | 0.46 ± 0.004 | 0.297 ± 0.011 | 0.327 ± 0.031 | 0.443 ± 0.0051 | 0.392 ± 0.017
39 | PSPFHSFYLRLI | 0.5716 ± 0.0014 | 0.643 ± 0.009 | 0.579 ± 0.011 | 0.712 ± 0.028 | 0.263 ± 0.0033 | 0.249 ± 0.014 | 0.483 ± 0.0017 | 0.398 ± 0.033
